We go through two molecules from patent US20210032351A1 (XDCEXPLORER SHANGHAI, published 2021).

The target in assay [1] is T1, human EGFRvIII-hFc protein (human, UniProt P00533 25-645).
T1 construct: extracellular domain; made in HEK293 cells, purified on protein A; also called immunogen A; hFc-tagged EGFRvIII protein; not shown: human IgG Fc fragment (hFc) of the pCpC vector
As to the kind of experiment: ELISA, coated EGFRvIII-hFc, antibody 0.0001 nM. The method, boiled down: (§1)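 EGFRvIII-hFc coated at 1.0 μg/mL in PBS overnight at 4° C, blocked with PBS/0.01% Tween20/1% BSA for 2 h at room temperature. Purified anti-EGFRvIII antibody bound 2 h at 37° C, then HRP-labeled secondary 2 h at 37° C. TMB developed 30 min, stopped with 1.0N HCl, A450 nm read.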

In assay [2] the target is T1, human EGFRvIII-hFc protein. Nature of the assay: ELISA, coated EGFRvIII-hFc, antibody 0.01 nM. The essentials: as §1
A general note: ELISA stands for enzyme-linked immunosorbent assay.

Assay [3] concerns the target T1, human EGFRvIII-hFc protein. As to the kind of experiment: ELISA, coated EGFRvIII-hFc, antibody 0.1 nM. The essentials:
as §1

Assay [4] addresses T1, human EGFRvIII-hFc protein. Nature of the assay: ELISA, coated EGFRvIII-hFc, antibody 10 nM. The essentials: as §1
Assay [5] has as its target T2, human EGFRvIII-hFc protein (human, UniProt P00533 25-645).
T2 construct: extracellular domain; also called immunogen A; hFc-tagged EGFRvIII protein; not shown: human IgG Fc fragment (hFc) of the pCpC vector
Nature of the assay: ELISA, EGFRvIII-hFc coated.

Assay [6] has as its target T3, human EGFRvIII protein on the cell surface (human, UniProt P00533 25-1210).
T3 construct: whole, on cells; the cell line is named under assay; also called hEGFRvIII; U87MG-hEGFRvIII
As to the kind of experiment: FACS on CHOk1-EGFRvIII cells. The protocol: The desired cells are subjected to an expanded culture to 90% confluence in a T-75 cell culture flask; the medium is sucked out, and the cells are washed twice with a HBSS buffer (Hanks Balanced Salt Solution) (purchased from Invitrogen), and then treated with an enzyme-free cell dissociation solution (Versene solution: purchased from Life Technology) and collected. The cells are washed twice with the HBSS buffer and are counted, and then the cells are diluted with the HBSS buffer to 2×10⁶ cells/ml, added with 1% goat serum blocking solution, with the percentage being the mass percentage, and incubated on ice for 30 minutes, and then centrifugally washed twice with the HBSS buffer. The collected cells are suspended to 2×10⁶ cells/mL with an FACS buffer (HBSS+1% BSA, with the percentage being the mass percentage), added to a 96-well FACS reaction plate at 100 μL/well, then added with 100 μL/well of the purified EGFRvIII antibody (samples to be tested) obtained in example 2, and incubated on ice for 2 hours. The plate is centrifugally washed twice with the FACS buffer, added with 100 μL/well of a fluorescence (Alexa 488) labeled secondary antibody (purchased from Invitrogen), and then incubated on ice for 1 hour. The plate is centrifugally washed 3 times with the FACS buffer, added with 100 μL/well of a fixing solution [4% (v/v) paraformaldehyde] for suspending the cells, and centrifugally washed twice with the FACS buffer after 10 minutes. The cells are suspended in 100 μL of the FACS buffer, and the results are detected and analyzed by FACS (FACS Calibur, purchased from BD). Data analysis is performed by using the software (CellQuest) to obtain the mean fluorescence intensity (MFI) of the cells. Data is further analyzed by using the software (GraphPad Prism5) to perform data fitting and calculate EC50. […] A431 cells (human epidermal cell cancer cell lines) have a large amount of wild-type EGFR protein expressed on the surface thereof.

B1: Murine anti-75G7 (antibody, V domains shown)
VH: EVQLQQSGPELVKPGASVKIPCKASGYTFTDYNMDWVKQSHGKSLEWIGDINPNNGDTIYNQKFKGKATLTVDKSSSTAYMELRSLTSEDTAVYYCARGDYDGYYPVYYAMDYWGQGTSVTVSS
VL: ENVLTQSPAIMSASPGEKVTMTCRASSSVSSSYLHWYQQKSGASPKLWIFSTSNLAAGVPARFSGSGSGTSYSLTVSSVEAEDAATYYCQQYSGYPLTFGAGTKLELK
notes: murine hybridoma antibody; also called 75G7C6
With B1, the OD450 nm in assay [1] worked out at 0.07; in assay [2] it was 0.06; in assay [3], 0.07; in assay [4] it was 0.19.

B2: Chimeric antibody 75G7 (antibody, human IgG1, V domains shown)
VH: B1 VH
VL: B1 VL
notes: also called c75G7C6; chimeric antibody c75G7C6
What is called EC50 is the concentration that produces a half-maximal response. A low value points to greater potency. As to B2, in assay [5], the EC50 was found to be 0.5 nM and the “Maximum OD450 value” amounted to 2.5 OD450. In assay [6], the EC50 was found to be 10.5 nM and the “Maximum mean fluorescence intensity” value was 112000 MFI.
